Measured values as given in publication PMC3629208, “Effective Identification of Akt Interacting Proteins by Two-Step Chemical Crosslinking, Co-Immunoprecipitation and Mass Spectrometry” (PLoS ONE, 2013).

Target: T1, Akt (protein kinase B), Akt1 (mouse (endogenous in Neuro 2A), UniProt P31750 1-480)
T1 construct: Akt1, mouse, endogenous in Neuro 2A cells, captured by a rabbit anti-Akt antibody; MS peptide assigned to Akt1 (gi/6753034); Bait of all co-IPs; The anti-Akt antibody may also capture other Akt isoforms; Cells were unstimulated or IGF-1 stimulated (phospho-T308 as the mark of active Akt); source: endogenous, Neuro 2A lysate
Assay: co-IP; two-step crosslinking co-IP (DSS-fixed anti-Akt antibody, DSP-crosslinking of the bound complexes) from Neuro 2A lysate, western blot; cells with or without IGF-1 (10 ng/mL, 10 min); band intensity normalized to Akt level
Conditions: partners not purified

T1 sequence (P31750 whole entry, canonical isoform): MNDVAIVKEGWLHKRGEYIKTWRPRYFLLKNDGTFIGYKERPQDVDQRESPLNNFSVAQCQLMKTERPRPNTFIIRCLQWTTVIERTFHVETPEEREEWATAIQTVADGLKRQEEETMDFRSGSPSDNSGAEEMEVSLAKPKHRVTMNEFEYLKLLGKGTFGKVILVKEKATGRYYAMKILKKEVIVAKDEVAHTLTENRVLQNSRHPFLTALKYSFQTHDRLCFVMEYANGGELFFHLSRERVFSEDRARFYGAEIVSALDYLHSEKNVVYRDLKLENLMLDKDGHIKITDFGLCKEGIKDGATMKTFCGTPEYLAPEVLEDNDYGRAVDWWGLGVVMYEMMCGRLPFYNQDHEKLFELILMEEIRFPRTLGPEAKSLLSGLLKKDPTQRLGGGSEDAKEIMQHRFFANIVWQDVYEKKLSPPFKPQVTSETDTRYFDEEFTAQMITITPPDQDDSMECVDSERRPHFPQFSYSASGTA

B1: ErbB3 binding protein 1 (EBP1, also called proliferation-associated protein 2G4) (natural protein, mouse (endogenous in Neuro 2A), UniProt P50580 1-394, looked up)
chain: MSGEDEQQEQTIAEDLVVTKYKMGGDIANRVLRSLVEASSSGVSVLSLCEKGDAMIMEETGKIFKKEKEMKKGIAFPTSISVNNCVCHFSPLKSDQDYILKEGDLVKIDLGVHVDGFIANVAHTFVIGVAQGTQVTGRKADVIKAAHLCAEAALRLVKPGNQNTQVTEAWNKVAHSFNCTPIEGMLSHQLKQHVIDGEKTIIQNPTDQQKKDHEKAEFEVHEVYAVDVLVSSGEGKAKDAGQRTTIYKRDPSKQYGLKMKTSRAFFSEVERRFDAMPFTLRAFEDEKKARMGVVECAKHELLQPFNVLYEKEGEFVAQFKFTVLLMPNGPMRITSGPFEPDLYKSEMEVQDAELKALLQSSASRKTQKKKKKKASKTVENATSGETLEENGAGD
notes: EBP1 (proliferation-associated protein 2G4), mouse, endogenous; gi 116283229, 42 kDa; source: endogenous, Neuro 2A lysate
fold increase of association, IGF-stimulated (active Akt) against unstimulated, normalized to Akt level: 2.4 fold

B2: extracellular regulated kinase-1 and -2 (ERK1/2) (natural protein, mouse (endogenous in Neuro 2A), UniProt P63085 1-358, looked up)
chain: MAAAAAAGPEMVRGQVFDVGPRYTNLSYIGEGAYGMVCSAYDNLNKVRVAIKKISPFEHQTYCQRTLREIKILLRFRHENIIGINDIIRAPTIEQMKDVYIVQDLMETDLYKLLKTQHLSNDHICYFLYQILRGLKYIHSANVLHRDLKPSNLLLNTTCDLKICDFGLARVADPDHDHTGFLTEYVATRWYRAPEIMLNSKGYTKSIDIWSVGCILAEMLSNRPIFPGKHYLDQLNHILGILGSPSQEDLNCIINLKARNYLLSLPHKNKVPWNRLFPNADSKALDLLDKMLTFNPHKRIEVEQALAHPYLEQYYDPSDEPIAEAPFKFDMELDDLPKEKLKELIFEETARFQPGYRS
notes: ERK1/2, mouse, endogenous; the MS entry is a single 42 kDa protein; source: endogenous, Neuro 2A lysate
fold change of association, IGF-stimulated against unstimulated, normalized to Akt level: 0.98 fold | fold increase of co-precipitated ERK1/2 with DSP-crosslinking against without, normalized to Akt level: 2.5 ± 0.2 fold

B3: nuclear distribution gene C (Nudc, also named nuclear migration gene C) (natural protein)
chain: not shown
notes: nuclear migration protein nudC, mouse, endogenous; gi 6754910, 38 kDa; source: endogenous, Neuro 2A lysate
fold change of association, IGF-stimulated against unstimulated, normalized to Akt level: 0.97 ± 0.1 fold

B4: glycogen synthase kinase (GSK)-3β (enzyme, mouse (endogenous in Neuro 2A), UniProt Q9WV60 1-420, looked up)
chain: MSGRPRTTSFAESCKPVQQPSAFGSMKVSRDKDGSKVTTVVATPGQGPDRPQEVSYTDTKVIGNGSFGVVYQAKLCDSGELVAIKKVLQDKRFKNRELQIMRKLDHCNIVRLRYFFYSSGEKKDEVYLNLVLDYVPETVYRVARHYSRAKQTLPVIYVKLYMYQLFRSLAYIHSFGICHRDIKPQNLLLDPDTAVLKLCDFGSAKQLVRGEPNVSYICSRYYRAPELIFGATDYTSSIDVWSAGCVLAELLLGQPIFPGDSGVDQLVEIIKVLGTPTREQIREMNPNYTEFKFPQIKAHPWTKVFRPRTPPEAIALCSRLLEYTPTARLTPLEACAHSFFDELRDPNVKLPNGRDTPALFNFTTQELSSNPPLATILIPPHARIQAAASPPANATAASDTNAGDRGQTNNAASASASNST
notes: glycogen synthase kinase-3 beta, mouse, endogenous; gi 9790077, 47 kDa; source: endogenous, Neuro 2A lysate
fold increase of association, IGF-stimulated (active Akt) against unstimulated, normalized to Akt level: 1.8 fold
